Here are results for two molecules from paper PMC10794133, “Structures of the promoter-bound respiratory syncytial virus polymerase”.

For data set [1], the target named is T1, RSV L (RNA-dependent RNA polymerase);RSV P (phosphoprotein) (human respiratory syncytial virus, …, UniProt P28887;P03421 1-2165;1-241, |). The experiment in a line: cryo-EM structure; pre-initiation at position 1; Cryo-EM grid conditions not in the material; protein in 25 mM HEPES pH 7.4, 300 mM NaCl, 6 mM MgSO4, 0.5 mM TCEP (gel filtration buffer). Particulars: protein: recombinant;recombinant; tags: N-terminal 6xHis-TEV, TEV-treated;; copies: 1;4; single strand. For orientation: In gel filtration, larger molecules generally elute earlier.
T1 sequence (P28887 whole entry, chain 1 of 2): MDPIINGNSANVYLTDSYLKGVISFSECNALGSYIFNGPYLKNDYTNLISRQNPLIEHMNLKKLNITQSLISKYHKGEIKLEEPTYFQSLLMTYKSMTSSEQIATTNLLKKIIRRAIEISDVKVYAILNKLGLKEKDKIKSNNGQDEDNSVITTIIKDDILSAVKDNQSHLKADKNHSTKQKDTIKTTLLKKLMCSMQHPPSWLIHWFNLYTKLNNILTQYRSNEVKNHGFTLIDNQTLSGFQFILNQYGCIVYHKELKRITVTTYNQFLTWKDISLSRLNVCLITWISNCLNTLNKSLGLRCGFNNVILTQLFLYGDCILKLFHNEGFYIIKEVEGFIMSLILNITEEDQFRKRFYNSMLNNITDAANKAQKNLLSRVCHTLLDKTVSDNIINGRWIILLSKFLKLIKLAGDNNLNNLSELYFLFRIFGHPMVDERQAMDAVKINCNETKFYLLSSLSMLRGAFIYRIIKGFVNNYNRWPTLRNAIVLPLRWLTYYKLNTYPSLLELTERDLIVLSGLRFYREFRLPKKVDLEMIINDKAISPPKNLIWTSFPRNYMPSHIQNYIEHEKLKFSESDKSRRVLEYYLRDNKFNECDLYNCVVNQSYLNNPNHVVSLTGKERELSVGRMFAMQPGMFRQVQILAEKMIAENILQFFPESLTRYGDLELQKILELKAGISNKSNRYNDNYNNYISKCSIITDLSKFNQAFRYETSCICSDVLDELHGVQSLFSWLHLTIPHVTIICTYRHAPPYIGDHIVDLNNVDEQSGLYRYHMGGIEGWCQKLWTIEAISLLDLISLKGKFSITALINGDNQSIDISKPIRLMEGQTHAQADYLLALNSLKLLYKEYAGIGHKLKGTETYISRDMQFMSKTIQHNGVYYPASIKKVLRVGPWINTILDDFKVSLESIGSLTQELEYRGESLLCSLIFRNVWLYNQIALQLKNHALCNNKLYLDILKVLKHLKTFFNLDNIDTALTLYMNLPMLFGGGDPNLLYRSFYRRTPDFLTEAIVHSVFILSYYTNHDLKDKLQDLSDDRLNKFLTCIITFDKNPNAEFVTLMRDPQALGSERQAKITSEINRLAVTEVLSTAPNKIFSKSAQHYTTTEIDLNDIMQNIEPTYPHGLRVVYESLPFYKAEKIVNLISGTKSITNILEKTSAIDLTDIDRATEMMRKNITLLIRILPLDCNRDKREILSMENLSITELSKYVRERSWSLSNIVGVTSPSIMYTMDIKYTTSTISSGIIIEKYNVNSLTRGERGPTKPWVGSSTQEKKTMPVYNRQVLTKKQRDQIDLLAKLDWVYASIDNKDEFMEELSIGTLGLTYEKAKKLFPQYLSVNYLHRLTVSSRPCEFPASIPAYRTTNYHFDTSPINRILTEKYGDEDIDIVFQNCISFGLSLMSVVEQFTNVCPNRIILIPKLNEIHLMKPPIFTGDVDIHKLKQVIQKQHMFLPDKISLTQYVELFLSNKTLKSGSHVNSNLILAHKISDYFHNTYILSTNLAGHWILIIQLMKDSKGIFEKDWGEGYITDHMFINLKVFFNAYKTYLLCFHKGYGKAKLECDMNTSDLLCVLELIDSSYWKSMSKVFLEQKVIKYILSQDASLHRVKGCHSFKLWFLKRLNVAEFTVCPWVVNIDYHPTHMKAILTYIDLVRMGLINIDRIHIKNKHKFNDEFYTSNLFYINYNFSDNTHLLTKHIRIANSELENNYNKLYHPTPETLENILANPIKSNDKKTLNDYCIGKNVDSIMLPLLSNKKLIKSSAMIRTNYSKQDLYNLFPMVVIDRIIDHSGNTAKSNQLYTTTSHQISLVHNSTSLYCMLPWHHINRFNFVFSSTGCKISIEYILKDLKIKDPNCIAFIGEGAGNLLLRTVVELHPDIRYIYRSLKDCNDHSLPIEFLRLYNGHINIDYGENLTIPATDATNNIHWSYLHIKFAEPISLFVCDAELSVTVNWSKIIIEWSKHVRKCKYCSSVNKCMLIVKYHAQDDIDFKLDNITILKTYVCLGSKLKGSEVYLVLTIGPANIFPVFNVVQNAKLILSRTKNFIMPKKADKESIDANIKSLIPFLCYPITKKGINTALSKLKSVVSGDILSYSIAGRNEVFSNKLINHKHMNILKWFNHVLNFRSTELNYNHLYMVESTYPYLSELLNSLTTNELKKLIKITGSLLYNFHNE
T1 sequence (P03421 whole entry, chain 2 of 2): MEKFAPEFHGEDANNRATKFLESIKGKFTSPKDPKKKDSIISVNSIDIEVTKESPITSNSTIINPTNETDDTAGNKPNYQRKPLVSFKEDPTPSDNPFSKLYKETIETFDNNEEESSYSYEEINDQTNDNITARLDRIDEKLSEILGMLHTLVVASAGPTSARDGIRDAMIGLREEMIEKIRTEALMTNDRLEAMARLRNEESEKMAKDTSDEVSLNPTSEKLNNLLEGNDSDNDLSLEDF

Data set [2] addresses T1, RSV L (RNA-dependent RNA …). The experiment in a line: cryo-EM structure; GTP and CpNpp supplemented (no product density); pre-initiation at position 3; Cryo-EM grid conditions not in the material; protein in 25 mM HEPES pH 7.4, 300 mM NaCl, 6 mM MgSO4, 0.5 mM TCEP (gel filtration buffer). The note with it: protein: recombinant;recombinant; tags: N-terminal 6xHis-TEV, TEV-treated;; copies: 1;4; single strand.

For the molecule UUUUUCUCGU (ssRNA) [TrC10 (3' trailer complementary promoter of antigenome)], the binding result in data set [1] is reported as “binds”.
As to UUUUUCGCGU (ssRNA) [Le10 (3' leader promoter of genome)], in data set [2], the binding result is on record as “binds”.
